In patent publication US9969998B2, “Compositions of adenosine deaminase-2 (ADA2), variants thereof and methods of using same” (Halozyme, Inc., priority 2014, dated 2018):

What was measured:
[1] = Heparin-affinity chromatography (heparin-Sepharose, SDS-PAGE); format: binding; conditions: for Heparin Column Binding: compared to WT rHuADA2, 0.3 mg/mL protein
Description: To assess binding of variants to heparin, heparin-affinity chromatography was employed to identify heparin-bound variants. Heparin binding was tested by mixing 35 μL of rHuADA2 WT and variants with 20 μL heparin-Sepharose™ resin (GE Healthcare, Pittsburgh, Pa.; Cat. No. 17-0998-01), followed by incubating at room temperature for 30 min. The mixture was then centrifuged through a 0.22 μm centrifuge filter and the flow-through, containing the unbound protein, was collected for analysis on an SDS-PAGE gel. 35 μL of 1.5 M NaCl was added to heparin-Sepharose resin and incubated at room temperature (RT) for 10 min to elute the remaining heparin-bound protein from the heparin-Sepharose. Samples of purified WT rHuADA2 and tested variants, before and after mixing with the heparin-Sepharose resin, were analyzed by SDS-PAGE to compare the degree of heparin binding.

[2] = Heparin binding ELISA (heparin coated microtiter plate); conditions: 3 μM protein
Description: A 96-well plate was coated with 100 μL of 200 μg/mL heparin sodium salt (Calibochem, EMD Milipore, Billerica, Mass.; Cat. No. 375095) in Na2CO3 buffer (pH 9.6), overnight at 4° C. The wells were blocked with 5% milk in PBS, and washed 6 times with PBS. 3 μM of select rHuADA2 variants (see Table 20), WT rHuADA2 (positive control) and WT rHuADA1 (negative control) were added to the wells individually and incubated for 2 hours at room temperature, followed by washing 6 times with PBS. 100 μL of 1:1000 diluted horseradish peroxidase (HRP)-anti-FLAG antibody (Abcam, Cambridge, UK; Cat. No. Ab1238) was added to the wells to detect binding and incubated at room temperature for 1 hour. The ELISA reactions were developed by adding the 3,3′,5,5′-Tetramethylbenzidine (TMB) substrate solution (Pierce, Thermo Fisher Scientific, Rockford, Ill.) according the manufacturer's instructions and reading the optical density at 450 nm (OD450) on a plate reader.

[3] = Adenosine deaminase (ADA) enzymatic activity assay kit; format: biochemical; conditions: for adenosine deaminase activity mU/mL / ΔA/min, adenosine deaminase activity: protein diluted to 5 μg/mL, serially diluted 2 fold (Table 21); for % activity vs. WT: relative to rHuADA2 WT (Table 21)

Row | heparin binding compared to WT [1] | Heparin Column Binding [1] | Average OD450, heparin binding ELISA ([2]; Set 1) | % activity vs. WT [3] | Average OD450, heparin binding ELISA ([2]; Set 2) | Molecule | enzymatic activity relative to WT rHuADA2 [3] | adenosine deaminase activity mU/mL [3] | ΔA/min, adenosine deaminase activity [3]
1 | attenuated heparin binding | Reduced | 0.2 | 158.3% |  | K375D: ADA2 variant SEQ ID NO:23 (protein, human ADA2 K372D, mature numbering) IDETRAHLLLKEKMMRLGGRLVLNTKEELANERLMTLKIAEMKEAMRTLIFPPSMHFFQAKHLIERSQVFNILRMMPKGAALHLHDIGIVTMDWLVRNVTYRPHCHICFTPRGIMQFRFAHPTPRPSEKCSKWILLEDYRKRVQNVTEFDDSLLRNFTLVTQHPEVIYTNQNVVWSKFETIFFTISGLIHYAPVFRDYVFRSMQEFYEDNVLYMEIRARLLPVYELSGEHHDEEWSVKTYQEVAQKFVETHPEFIGIKIIYSDHRSKDVAVIAESIRMAMGLRIKFPTVVAGFDLVGHEDTGHSLHDYKEALMIPAKDGVKLPYFFHAGETDWQGTSIDRNILDALMLNTTRIGHGFALSKHPAVRTYSWKDDIPIEVCPISNQVLKLVSDLRNHPVATLMATGHPMVISSDDPAMFGAKGLSYDFYEVFMGIGGMKADLRTLKQLAMNSIKYSTLLESEKNTFMEIWKKRWDKFIADVATK | improved enzymatic activity | 123.5 mU/mL | 53.7
2 |  | Reduced |  | 100.5% |  | K14A/K374A: ADA2 variant SEQ ID NO:58 (protein, human ADA2 K11A/K371A, mature numbering) IDETRAHLLLAEKMMRLGGRLVLNTKEELANERLMTLKIAEMKEAMRTLIFPPSMHFFQAKHLIERSQVFNILRMMPKGAALHLHDIGIVTMDWLVRNVTYRPHCHICFTPRGIMQFRFAHPTPRPSEKCSKWILLEDYRKRVQNVTEFDDSLLRNFTLVTQHPEVIYTNQNVVWSKFETIFFTISGLIHYAPVFRDYVFRSMQEFYEDNVLYMEIRARLLPVYELSGEHHDEEWSVKTYQEVAQKFVETHPEFIGIKIIYSDHRSKDVAVIAESIRMAMGLRIKFPTVVAGFDLVGHEDTGHSLHDYKEALMIPAKDGVKLPYFFHAGETDWQGTSIDRNILDALMLNTTRIGHGFALSKHPAVRTYSWAKDIPIEVCPISNQVLKLVSDLRNHPVATLMATGHPMVISSDDPAMFGAKGLSYDFYEVFMGIGGMKADLRTLKQLAMNSIKYSTLLESEKNTFMEIWKKRWDKFIADVATK |  | 78.4 mU/mL | 34.1
3 |  | Reduced |  | 150.7% | 0.17 | R23A/K374A: ADA2 variant SEQ ID NO:57 (protein, human ADA2 R20A/K371A, mature numbering) IDETRAHLLLKEKMMRLGGALVLNTKEELANERLMTLKIAEMKEAMRTLIFPPSMHFFQAKHLIERSQVFNILRMMPKGAALHLHDIGIVTMDWLVRNVTYRPHCHICFTPRGIMQFRFAHPTPRPSEKCSKWILLEDYRKRVQNVTEFDDSLLRNFTLVTQHPEVIYTNQNVVWSKFETIFFTISGLIHYAPVFRDYVFRSMQEFYEDNVLYMEIRARLLPVYELSGEHHDEEWSVKTYQEVAQKFVETHPEFIGIKIIYSDHRSKDVAVIAESIRMAMGLRIKFPTVVAGFDLVGHEDTGHSLHDYKEALMIPAKDGVKLPYFFHAGETDWQGTSIDRNILDALMLNTTRIGHGFALSKHPAVRTYSWAKDIPIEVCPISNQVLKLVSDLRNHPVATLMATGHPMVISSDDPAMFGAKGLSYDFYEVFMGIGGMKADLRTLKQLAMNSIKYSTLLESEKNTFMEIWKKRWDKFIADVATK |  | 117.6 mU/mL | 51.1
4 | attenuated heparin binding | Reduced | 0.21 | 138.6% |  | K375E: ADA2 variant SEQ ID NO:24 (protein, human ADA2 K372E, mature numbering) IDETRAHLLLKEKMMRLGGRLVLNTKEELANERLMTLKIAEMKEAMRTLIFPPSMHFFQAKHLIERSQVFNILRMMPKGAALHLHDIGIVTMDWLVRNVTYRPHCHICFTPRGIMQFRFAHPTPRPSEKCSKWILLEDYRKRVQNVTEFDDSLLRNFTLVTQHPEVIYTNQNVVWSKFETIFFTISGLIHYAPVFRDYVFRSMQEFYEDNVLYMEIRARLLPVYELSGEHHDEEWSVKTYQEVAQKFVETHPEFIGIKIIYSDHRSKDVAVIAESIRMAMGLRIKFPTVVAGFDLVGHEDTGHSLHDYKEALMIPAKDGVKLPYFFHAGETDWQGTSIDRNILDALMLNTTRIGHGFALSKHPAVRTYSWKEDIPIEVCPISNQVLKLVSDLRNHPVATLMATGHPMVISSDDPAMFGAKGLSYDFYEVFMGIGGMKADLRTLKQLAMNSIKYSTLLESEKNTFMEIWKKRWDKFIADVATK | improved enzymatic activity | 108.1 mU/mL | 47
5 | attenuated heparin binding | Reduced |  | 163.2% | 0.26 | K455E: ADA2 variant SEQ ID NO:27 (protein, human ADA2 K452E, mature numbering) IDETRAHLLLKEKMMRLGGRLVLNTKEELANERLMTLKIAEMKEAMRTLIFPPSMHFFQAKHLIERSQVFNILRMMPKGAALHLHDIGIVTMDWLVRNVTYRPHCHICFTPRGIMQFRFAHPTPRPSEKCSKWILLEDYRKRVQNVTEFDDSLLRNFTLVTQHPEVIYTNQNVVWSKFETIFFTISGLIHYAPVFRDYVFRSMQEFYEDNVLYMEIRARLLPVYELSGEHHDEEWSVKTYQEVAQKFVETHPEFIGIKIIYSDHRSKDVAVIAESIRMAMGLRIKFPTVVAGFDLVGHEDTGHSLHDYKEALMIPAKDGVKLPYFFHAGETDWQGTSIDRNILDALMLNTTRIGHGFALSKHPAVRTYSWKKDIPIEVCPISNQVLKLVSDLRNHPVATLMATGHPMVISSDDPAMFGAKGLSYDFYEVFMGIGGMKADLRTLKQLAMNSIEYSTLLESEKNTFMEIWKKRWDKFIADVATK | improved enzymatic activity | 127.3 mU/mL | 55.4
6 | attenuated heparin binding | Reduced |  | 148.5% | 0.18 | R369E: ADA2 variant SEQ ID NO:33 (protein, human ADA2 R366E, mature numbering) IDETRAHLLLKEKMMRLGGRLVLNTKEELANERLMTLKIAEMKEAMRTLIFPPSMHFFQAKHLIERSQVFNILRMMPKGAALHLHDIGIVTMDWLVRNVTYRPHCHICFTPRGIMQFRFAHPTPRPSEKCSKWILLEDYRKRVQNVTEFDDSLLRNFTLVTQHPEVIYTNQNVVWSKFETIFFTISGLIHYAPVFRDYVFRSMQEFYEDNVLYMEIRARLLPVYELSGEHHDEEWSVKTYQEVAQKFVETHPEFIGIKIIYSDHRSKDVAVIAESIRMAMGLRIKFPTVVAGFDLVGHEDTGHSLHDYKEALMIPAKDGVKLPYFFHAGETDWQGTSIDRNILDALMLNTTRIGHGFALSKHPAVETYSWKKDIPIEVCPISNQVLKLVSDLRNHPVATLMATGHPMVISSDDPAMFGAKGLSYDFYEVFMGIGGMKADLRTLKQLAMNSIKYSTLLESEKNTFMEIWKKRWDKFIADVATK | improved enzymatic activity | 115.9 mU/mL | 50.4
